Key:
[1] = biological target: SARS-CoV-2 main protease with the mutations E290A and R298A (MPro^M) (SARS-CoV-2); assay: AUC; sedimentation velocity, 50,000 rpm, 25 °C, buffer B with 0.1% DMSO; MPro^M at 6-7 µM with GC376 at 1-50 µM
[2] = biological target: SARS-CoV-2 main protease with the mutations E290A and R298A (MPro^M) (SARS-CoV-2); assay: enzyme kinetics (calculated from rate constants); dimer to monomers (K1); MPro^M, calculated from the slope of rate against [Mo]^2 (Eq. 3) and from k3/Ks found with GC376 (Eq. 6); buffer B, 28 °C
[3] = biological target: SARS-CoV-2 main protease with the mutations E290A and R298A (MPro^M) (SARS-CoV-2); assay: not stated; 10 µM MPro^M with a 10-fold molar excess of GC376 (100 µM); told with the CD spectra
[4] = biological target: SARS-CoV-2 main protease with the mutations E290A and R298A (MPro^M) (SARS-CoV-2); assay: AUC; sedimentation velocity, 50,000 rpm, 25 °C, buffer A; MPro^M at 18-90 µM, without inhibitor

Which results are given for “SARS-CoV-2 main protease with the mutations E290A and R298A (MPro^M) (enzyme)”?
free monomer concentration [M] at [Mo] 10 µM and GC376 10 µM [1]: 5e-06 M; stoichiometry N [1]: 2; Kd [2]: 6.6 mM; percent dimeric with 10-fold molar excess of GC376 [3]: 90%; Kd [4]: > 0.09 mM

— paper PMC8888643
